Experiments:
[1] = biological target: BG505 SOSIP.664 trimer, unmodified (HIV-1); assay: cross-linking
[2] = biological target: B41 SOSIP.664 trimer (HIV-1); assay: cross-linking

Substance	stoichiometry N [1]	stoichiometry N [2]
BG505 SOSIP.664 trimer, unmodified (complex)	3	–
B41 SOSIP.664 trimer (complex)	–	3
